According to patent publication US20230340128A1:

Experiments:
[1] = molecular target: human mesothelin (MSLN) (human) (UniProt Q13421); assay: BLI (Octet), bsAb in 1+1 Fab-scFv-Fc format
[2] = molecular target: cyno MSLN (Macaca fascicularis); assay: BLI (Octet), bsAb in 1+1 Fab-scFv-Fc format

Row | Binder | Kd [1] [nM] | Response [1] | koff [1] [s⁻¹] | kon [1] [M⁻¹ s⁻¹] | Kd [2] [nM] | Response [2] | koff [2] [s⁻¹] | kon [2] [M⁻¹ s⁻¹]
1 | XENP31701 (bispecific antibody, part only; not given: anti-CD3 scFv-Fc arm, constant regions, V domains shown, not shown: another chain or arm of the molecule; a dimerising Fc or GST; small tags and cut ends) VH: QVQLVQSGAEVKKPGASVKVSCKASGYTFTSYWMHWVRQAPGQGLEWMGMIHPNSDNTIYYEKFQGRVTMTVDKSISTAYMELSRLRSDDTAVYYCAIIITPVVPKFDYWGQGTLVTVSS VL: DIVMTQSPDSLAVSLGERATINCKASHDVGTSVAWYQQKPGQSPKLLIYWASTRHTGVPDRFTGSGSGTDFTLTISSLQAEDVAVYFCQQYSSYPLTFGAGTKLEIK | 0.0805 | 0.86 | 4.69e-05 | 583000 | 0.0938 | 0.737 | 5.74e-05 | 612000
2 | XENP32550 (bispecific antibody, part only; not given: anti-CD3 scFv-Fc arm, constant regions, V domains shown, not shown: another chain or arm of the molecule; a dimerising Fc or GST; small tags and cut ends) VH: QVQLVQSGAEVKKPGASVKVSCKASGYTFTGYWMHWVRQAPGQGLEWMGMIHPNSDNTIYYEKFQGRVTMTVDKSISTAYMELSRLRSDDTAVYYCAIIITPVVPKFDYWGQGTLVTVSS VL: DIVMTQSPDSLAVSLGERATINCKASHDVGTSVAWYQQKPGQSPKLLIYWASTRHTGVPDRFTGSGSGTDFTLTISSLQAEDVAVYFCQQYSSYPLTFGAGTKLEIK | 0.601 | 1.02 | 0.000314 | 522000 | 0.254 | 0.891 | 0.000146 | 576000
3 | XENP32564 (bispecific antibody, part only; not given: anti-CD3 scFv-Fc arm, constant regions, V domains shown, not shown: another chain or arm of the molecule; a dimerising Fc or GST; small tags and cut ends) VH: QVQLVQSGAEVKKPGASVKVSCKASGYTFTSYWMHWVRQAPGQGLEWMGMIHPNSDNTIYYEKFQGRVTMTVDKSISTAYMELSRLRSDDTAVYYCAIIITPVVPKFDYWGQGTLVTVSS VL: DIVMTQSPDSLAVSLGERATINCKASHDVGTSLAWYQQKPGQSPKLLIYWASTRHTGVPDRFTGSGSGTDFTLTISSLQAEDVAVYFCQQYSSYPLTFGAGTKLEIK | 0.0861 | 0.952 | 5.68e-05 | 660000 | 0.0297 | 0.849 | 2.01e-05 | 676000
4 | XENP32565 (bispecific antibody, part only; not given: anti-CD3 scFv-Fc arm, constant regions, V domains shown, not shown: another chain or arm of the molecule; a dimerising Fc or GST; small tags and cut ends) VH: QVQLVQSGAEVKKPGASVKVSCKASGYTFTSYWMHWVRQAPGQGLEWMGMIHPNSDNTIYYEKFQGRVTMTVDKSISTAYMELSRLRSDDTAVYYCAIIITPVVPKFDYWGQGTLVTVSS VL: DIVMTQSPDSLAVSLGERATINCKASHDVGTSVAWYQQKPGQSPKLLIYWASTRETGVPDRFTGSGSGTDFTLTISSLQAEDVAVYFCQQYSSYPLTFGAGTKLEIK | 0.286 | 1.11 | 0.000169 | 590000 | 0.255 | 1 | 0.000151 | 592000
5 | XENP32566 (bispecific antibody, part only; not given: anti-CD3 scFv-Fc arm, constant regions, V domains shown, not shown: another chain or arm of the molecule; a dimerising Fc or GST; small tags and cut ends) VH: QVQLVQSGAEVKKPGASVKVSCKASGYTFTSYWMHWVRQAPGQGLEWMGMIHPNSDNTIYYEKFQGRVTMTVDKSISTAYMELSRLRSDDTAVYYCAIIITPVVPKFDYWGQGTLVTVSS VL: DIVMTQSPDSLAVSLGERATINCKASHDVGTSVAWYQQKPGQSPKLLIYWASTRHSGVPDRFTGSGSGTDFTLTISSLQAEDVAVYFCQQYSSYPLTFGAGTKLEIK | 0.18 | 1.05 | 0.000113 | 627000 | 0.163 | 0.941 | 0.0001 | 616000
6 | XENP32568 (bispecific antibody, part only; not given: anti-CD3 scFv-Fc arm, constant regions, V domains shown, not shown: another chain or arm of the molecule; a dimerising Fc or GST; small tags and cut ends) VH: QVQLVQSGAEVKKPGASVKVSCKASGYTFTSYWMHWVRQAPGQGLEWMGMIHPNSDNTIYYEKFQGRVTMTVDKSISTAYMELSRLRSDDTAVYYCAIIITPVVPKFDYWGQGTLVTVSS VL: DIVMTQSPDSLAVSLGERATINCKASHDVGTSVAWYQQKPGQSPKLLIYWASTRHTGVPDRFTGSGSGTDFTLTISSLQAEDVAVYFCQQYSSTPLTFGAGTKLEIK | – | 0.107 | – | – | – | 0.0728 | – | –
7 | XENP32569 (bispecific antibody, part only; not given: anti-CD3 scFv-Fc arm, constant regions, V domains shown, not shown: another chain or arm of the molecule; a dimerising Fc or GST; small tags and cut ends) VH: QVQLVQSGAEVKKPGASVKVSCKASGYTFTSYWMHWVRQAPGQGLEWMGMIHPQSDNTIYYEKFQGRVTMTVDKSISTAYMELSRLRSDDTAVYYCAIIITPVVPKFDYWGQGTLVTVSS VL: DIVMTQSPDSLAVSLGERATINCKASHSVGTSVAWYQQKPGQSPKLLIYWASTRHTGVPDRFTGSGSGTDFTLTISSLQAEDVAVYFCQQYSSYPLTFGAGTKLEIK | 0.135 | 0.978 | 9.35e-05 | 693000 | 0.189 | 0.867 | 0.000125 | 660000
8 | XENP32570 (bispecific antibody, part only; not given: anti-CD3 scFv-Fc arm, constant regions, V domains shown, not shown: another chain or arm of the molecule; a dimerising Fc or GST; small tags and cut ends) VH: QVQLVQSGAEVKKPGASVKVSCKASGYTFTSYWMHWVRQAPGQGLEWMGMIHPNSGNTIYYEKFQGRVTMTVDKSISTAYMELSRLRSDDTAVYYCAIIITPVVPKFDYWGQGTLVTVSS VL: DIVMTQSPDSLAVSLGERATINCKASHSVGTSVAWYQQKPGQSPKLLIYWASTRHTGVPDRFTGSGSGTDFTLTISSLQAEDVAVYFCQQYSSYPLTFGAGTKLEIK | 0.103 | 0.981 | 7.35e-05 | 717000 | 0.155 | 0.95 | 0.000105 | 676000
